Key:
[1] = biological target: T1, Bovine neck ligament-derived elastin (SIGMA, E1625), P04985
T1 chain: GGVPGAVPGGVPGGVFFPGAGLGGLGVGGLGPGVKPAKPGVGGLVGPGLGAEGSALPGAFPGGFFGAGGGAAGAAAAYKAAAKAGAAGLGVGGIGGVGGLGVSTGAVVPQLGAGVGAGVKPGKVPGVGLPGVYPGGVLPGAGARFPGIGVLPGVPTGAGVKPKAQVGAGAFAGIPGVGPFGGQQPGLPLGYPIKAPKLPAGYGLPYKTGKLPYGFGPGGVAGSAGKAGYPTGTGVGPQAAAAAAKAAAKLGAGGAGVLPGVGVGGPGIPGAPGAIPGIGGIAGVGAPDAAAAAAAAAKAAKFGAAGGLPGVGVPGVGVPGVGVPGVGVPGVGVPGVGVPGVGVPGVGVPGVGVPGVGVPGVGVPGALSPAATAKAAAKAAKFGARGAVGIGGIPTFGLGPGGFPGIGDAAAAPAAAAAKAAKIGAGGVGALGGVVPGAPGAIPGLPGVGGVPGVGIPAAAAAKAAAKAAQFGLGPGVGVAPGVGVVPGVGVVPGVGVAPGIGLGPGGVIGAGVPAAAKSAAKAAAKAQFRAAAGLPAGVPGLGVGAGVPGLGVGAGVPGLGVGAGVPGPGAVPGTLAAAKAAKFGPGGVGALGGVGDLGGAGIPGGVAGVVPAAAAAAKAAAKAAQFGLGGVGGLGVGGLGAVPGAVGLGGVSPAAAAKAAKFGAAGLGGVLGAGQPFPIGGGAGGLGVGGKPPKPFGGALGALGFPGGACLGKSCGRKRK

[2] = biological target: bovine Achilles tendon-derived collagen (SIGMA, C9879)

B1: BLP homologue derived from Lysobacter gummosus (LgBLP) (protein)
chain: AERGLSGQDLVYSYDEMFDFDIDAYLAKNAPHLSRHAESISHWAGYSGISPKVLIALMEQQSGAITRKHAAADAAKRPFGALAKAKDFNGQTREVAQALREALYENDGPDAKGAVTVARANPLQALFERAGASQASAKLSGDGEFQLVYGRLFNEPRQAQAPSARFAKAGPDVQPLSP
[1]
  elastin degrading activity (amount of peptides liberated, relative value to savinase): LgBLP had lower elastin degrading activity as compared to savinase

B2: beta-lytic metallopeptidase (BLP) (protein)
chain: SAQGHGLSGEDLVYSYDEMFDFDIDAYLAKHAPHLHKHSEEISHWAGYSGISPKVLIALMEQQSGAVSAKRATNRPFGKLARADGFGAQTREVALALRESLYERDPDGAKGPVTLARANPLQALFERSGDNEPAAALRGDGEFQLVYGRLFNEPRQAKAASDRFAKAGPDVQPLSPNGL
[2]
  collagen degrading activity (amount of peptides liberated, relative value to savinase): had significantly lower collagen degrading activity as compared to savinase
[1]
  elastin degrading activity (amount of peptides liberated, relative value to savinase): BLP was equivalent in elastin degrading activity to savinase
